What was measured:
[1] = test system: ATCC 700802 VRE cells; assay: Electron micrographs of bactericidal effects of Ph-EF; type: cell-based, Enterococcus; settings: Ph-EF 10 ug/ml 0.5 and 2 hr; Ph-SA 10 ug/ml 2 hr; vancomycin 20 ug/ml 2 hr
Description: Electron Microraphs of Bactericidal Effects of Ph-EF Against ATCC 700802 VRE Cells (1% Phosphotungstic Acid, 15.000×).
Bactericidal effects of ph-EF were tested and monitored by electron microscopy. FIG. 16 depicts electron micrographs of (a) untreated cells; (b) and (c) cells treated with Ph-EF (10 ug/ml) for 0.5 hr; (d) untreated cells for 2 hr; (e) cells treated by Ph-SA (10 ug/ml) for 2 hr; (f) cells treated with vancomycin (20 ug/ml) for 2 hr; (g) and (h) cells treated with Ph-EF (10 ug/ml) for 2 hrs.

[2] = test system: ATCC 700802 VRE cells; assay: Ph-EF protection of ATCC 700802 infected mice; type: in vivo; settings: for Death distribution in hours 24 h / Death distribution in hours 48 h / Death distribution in hours 72 h / Death distribution in hours 96 h / Death distribution in hours 120 h / Death distribution in hours 144 h / Death distribution in hours 168 h / Number of Death: 5 animals
Description: To assess in vivo effects of Ph-EF, mice were injected with a fatal dosage of ATCC 700802 VRE cells intraperitoneally. […] Mice were inspected every 24 hours for 7-14 days. Dead mice would be counted as positive results.

[3] = test system: vancomycin-sensitive Enterococcus ATCC29212; settings: 3 ug/ml; ATCC 29212 cells
[4] = test system: Vancomycin-resistant Enterococcus ATCC 700802

B1: Ph-EF: Colicin Ia linked to the N-terminus of the E. facaelis pheromone cCF10 (protein)
chain: SDPVARGITNPGAESLGYDSDGHEIMAVASPIYVASNPPRVASPVFHGTPPAWSSFGNKTIWGGNEWVASPDSPTRSDIEKRDKEITAYKNTLSAQQKENENKRTEAGKRLSAAIAAREKDENTLKTLRAGNADAADITRQEFRLLQAELREYGFRTEIAGYDALRLHTESRMLFADADSLRISPREARSLIEQAEKRQKDAQNADKKAADMLAEYERRKGILDTRLSELEKNGGAALAVLDAQQARLLGQQTRNDRAISEARNKLSSVTESLNTARNALTRAEQQLTQQKNTPDGKTIVSPEKFPGRSSTNHSIVVSGDPRFAGTIKITTSAVIDNRANLNYLLSHSGLDYKRNILNDRNPVVTEDVEGDKKIYNAEVALAEWDKLRQRLLDARNKITSAESAVASNSARNNLSARTNEQKHANDALNALLKEKENIRNQLSGINQKIAEEKRKQDELKATKDAINFTTEFLKSVSEKYGAKAEQLAREMAGQAKGKKIRNVEEALKTYEKYRADINKKINAKDRAAIAAALESVKLSDISSNLNRFSRGLGYAGKFTSLADWITEFGKAVARGTENWRPLFVKTETIIAGNAATALVALALVFSILTGSALGIIGYGLLMAVTGALIDESLVEKANKFWGILVTLVFV
modifications: Colicin Ia linked to E. facaelis pheromone cCF10
morphological alteration in VRE cells (electron micrographs) [1]: substantial morphological alteration | Death distribution in hours 24 h ([2]; 5 mg/kg intravenously): 0 | Death distribution in hours 48 h ([2]; 5 mg/kg intravenously): 1 | Death distribution in hours 72 h ([2]; 5 mg/kg intravenously): 0 | Death distribution in hours 96 h ([2]; 5 mg/kg intravenously): 0 | Death distribution in hours 120 h ([2]; 5 mg/kg intravenously): 0 | Death distribution in hours 144 h ([2]; 5 mg/kg intravenously): 0 | Death distribution in hours 168 h ([2]; 5 mg/kg intravenously): 0 | Number of Death ([2]; 5 mg/kg intravenously): 1 | Death distribution in hours 24 h ([2]; 10 mg/kg intravenously): 0 | Death distribution in hours 48 h ([2]; 10 mg/kg intravenously): 0 | Death distribution in hours 72 h ([2]; 10 mg/kg intravenously): 0 | Death distribution in hours 96 h ([2]; 10 mg/kg intravenously): 0 | Death distribution in hours 120 h ([2]; 10 mg/kg intravenously): 0 | Death distribution in hours 144 h ([2]; 10 mg/kg intravenously): 0 | Death distribution in hours 168 h ([2]; 10 mg/kg intravenously): 0 | Number of Death ([2]; 10 mg/kg intravenously): 0 | protection against infection in mice ([2]; ATCC 700802 VRE i.p., agent i.v.): effectively prevent Enterococcus infection in mice | inhibition of cell growth [3]: inhibited cell growth | inhibition of VRE cell growth ([4]; 10 ug/ml, ATCC 700802): effectively inhibited VRE cell growth | bactericidal effect relative to vancomycin on a molar basis ([4]; Ph-EF 70,000 daltons vs vancomycin 1456 daltons): almost one hundred times greater

Source: patent publication US20050153872A1, “Methods and compositions for the treatment of infection” (priority 2004, published 2005)
